± gives the standard deviation of the averaged measurements.
Legend:
Saccharomyces cerevisiae [1] = test: protein stability index of tFT-peptide fusion (C-terminal peptide) (PSI (0-1 scale)); higher = more stable (slower turnover); details: genetic background: wild type; temperature: 30 C
Saccharomyces cerevisiae [2] = test: as above
Method: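 MPS profiling in S. cerevisiae of the tFT-X12 degron library: putative degron peptides plus stable controls, 12 aa, fused to the C-terminus of a sfGFP-mCherry timer. Cells are FACS-sorted into 8 mCherry/sfGFP bins and deep-sequenced. PSI runs from 0 (unstable) to 1 (stable). Backgrounds are wild type, das1Δ and doa10Δ at 30 °C, and wild type, das1Δ, cdc34-1 and cdc53-1 at 37 °C; 2-3 technical replicates each.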

[3] = genetic background: cdc34-1, temperature: 37 C
[4] = genetic background: cdc53-1, temperature: 37 C
[5] = genetic background: das1 deletion, temperature: 30 C
[6] = genetic background: das1 deletion, temperature: 37 C
[7] = genetic background: doa10 deletion, temperature: 30 C
[8] = genetic background: wild type, temperature: 30 C
[9] = genetic background: wild type, temperature: 37 C
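Also: PSI is a weighted mean of sequencing reads over stability bins, variants kept only with over 10 reads, mCherry proximal and sfGFP distal, peptide attached via GGGS linker.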

| Sequence | protein stability index (Saccharomyces cerevisiae [1]) | protein stability index (Saccharomyces cerevisiae [2]; [3]) | protein stability index (Saccharomyces cerevisiae [2]; [4]) | protein stability index (Saccharomyces cerevisiae [2]; [5]) | protein stability index (Saccharomyces cerevisiae [2]; [6]) | protein stability index (Saccharomyces cerevisiae [2]; [7]) | protein stability index (Saccharomyces cerevisiae [2]; [8]) | protein stability index (Saccharomyces cerevisiae [2]; [9]) |
| --- | --- | --- | --- | --- | --- | --- | --- | --- |
| DVWEHLHKQHNM | 0.499 ± 0.085 | 0.704 ± 0.015 | 0.765 ± 0.032 | 0.699 ± 0.024 | 0.753 ± 0.032 | 0.274 ± 0.021 | 0.348 ± 0.053 | 0.62 ± 0.032 |
| EGVVLLVDCVAT | 0.41 ± 0.025 | 0.4623 ± 0.0015 | 0.465 ± 0.02 | 0.301 ± 0.031 | 0.514 ± 0.0093 | 0.26 ± 0.0074 | 0.308 ± 0.02 | 0.492 ± 0.02 |
| ERRWKRKVIGLC | 0.274 ± 0.047 | 0.632 ± 0.034 | 0.736 ± 0.031 | 0.594 ± 0.015 | 0.734 ± 0.0071 | 0.115 ± 0.025 | 0.131 ± 0.0095 | 0.214 ± 0.024 |
| FFSFLFLLLFGA | – | 0.566 ± 0.016 | 0.643 ± 0.0069 | 0.556 ± 0.018 | 0.619 ± 0.07 | 0.555 ± 0.016 | 0.5673 ± 0.0056 | 0.617 ± 0.046 |
| FPPCSFLGFLVF | – | 0.69 ± 0.027 | 0.768 ± 0.014 | 0.571 ± 0.023 | 0.73 ± 0.014 | 0.556 ± 0.018 | 0.556 ± 0.014 | 0.688 ± 0.034 |
| GAVGRWGWVSFV | – | 0.699 ± 0.038 | 0.7732 ± 0.0059 | 0.653 ± 0.014 | 0.7883 ± 0.0033 | 0.337 ± 0.0076 | 0.357 ± 0.025 | 0.638 ± 0.052 |
| GFTIFFFFFFFV | – | 0.227 ± 0.043 | 0.234 ± 0.018 | 0.193 ± 0.035 | 0.266 ± 0.045 | 0.287 ± 0.056 | 0.165 ± 0.0033 | 0.264 ± 0.0077 |
| GPPPPPSLLLLC | – | 0.6 ± 0.04 | 0.712 ± 0.0078 | 0.614 ± 0.025 | 0.721 ± 0.011 | 0.201 ± 0.0072 | 0.211 ± 0.015 | 0.345 ± 0.02 |
| GVAVVWVGLGVT | – | 0.325 ± 0.011 | 0.445 ± 0.043 | 0.27 ± 0.018 | 0.474 ± 0.0068 | 0.227 ± 0.013 | 0.262 ± 0.017 | 0.4519 ± 0.0017 |
| LDVGGRRGGEHC | – | 0.598 ± 0.071 | 0.646 ± 0.096 | 0.554 ± 0.024 | 0.6665 ± 0.0011 | 0.583 ± 0.092 | 0.594 ± 0.077 | 0.598 ± 0.011 |
| LFVLVLLCWMLT | – | 0.347 ± 0.038 | 0.462 ± 0.014 | 0.373 ± 0.029 | 0.42739 ± 0.00025 | 0.357 ± 0.012 | 0.34 ± 0.013 | 0.434 ± 0.03 |
| LWGVGFLFVLVG | – | 0.1858 ± 0.0014 | 0.268 ± 0.024 | 0.229 ± 0.036 | 0.403 ± 0.039 | 0.105 ± 0.0094 | 0.131 ± 0.017 | 0.183 ± 0.014 |
| PHSMRTTTIMCS | – | 0.357 ± 0.034 | 0.444 ± 0.021 | 0.296 ± 0.031 | 0.516 ± 0.0075 | 0.214 ± 0.0032 | 0.243 ± 0.056 | 0.436 ± 0.0045 |
| RPPPAANFTRSS | – | 0.655 ± 0.022 | 0.688 ± 0.024 | 0.665 ± 0.016 | 0.698 ± 0.012 | 0.665 ± 0.018 | 0.661 ± 0.0078 | 0.679 ± 0.012 |
| YGETRGGGRGRW | – | 0.587 ± 0.049 | 0.887 ± 0.038 | 0.475 ± 0.034 | 0.766 ± 0.16 | 0.563 ± 0.13 | 0.538 ± 0.12 | 0.65 ± 0.11 |
| YRQIIPSFTLGL | 0.715 ± 0.036 | – | – | – | – | – | – | – |
| YRSPRSSSGSSF | 0.67 ± 0.041 | – | – | – | – | – | – | – |
| YSDNIHIEFEDC | 0.737 ± 0.068 | – | – | – | – | – | – | – |
| YSGYRASLVFEI | 0.648 ± 0.099 | – | – | – | – | – | – | – |
| YSIIYATGMRIL | 0.626 ± 0.07 | – | – | – | – | – | – | – |

| Sequence | protein stability index (Saccharomyces cerevisiae [1]) | protein stability index (Saccharomyces cerevisiae [2]; [3]) | protein stability index (Saccharomyces cerevisiae [2]; [4]) | protein stability index (Saccharomyces cerevisiae [2]; [5]) | protein stability index (Saccharomyces cerevisiae [2]; [6]) | protein stability index (Saccharomyces cerevisiae [2]; [7]) | protein stability index (Saccharomyces cerevisiae [2]; [8]) | protein stability index (Saccharomyces cerevisiae [2]; [9]) |
| --- | --- | --- | --- | --- | --- | --- | --- | --- |
| YSLETGIFVFHR | 0.7027 ± 0.0068 | – | – | – | – | – | – | – |
| YSLPPAPQPLPP | 0.772 ± 0.092 | – | – | – | – | – | – | – |
| YSPFGKRLLPPC | 0.702 ± 0.057 | – | – | – | – | – | – | – |
| YSTFIPYSPCTA | 0.644 ± 0.013 | – | – | – | – | – | – | – |
| YSVDGTGVGLWV | 0.717 ± 0.016 | – | – | – | – | – | – | – |
| YSWGVLSWLSFG | 0.648 ± 0.0074 | – | – | – | – | – | – | – |
| YTPEVSVFFFRT | 0.6233 ± 0.0014 | – | – | – | – | – | – | – |
| YTSFGSSLIPTT | 0.652 ± 0.074 | – | – | – | – | – | – | – |
| YTSPRSTGPSVG | 0.732 ± 0.012 | – | – | – | – | – | – | – |
| YTTFNLSQTLNG | 0.674 ± 0.023 | – | – | – | – | – | – | – |
| YTWVDKNDRTKR | 0.736 ± 0.11 | – | – | – | – | – | – | – |
| YVFSPLSCWASV | – | 0.692 ± 0.056 | 0.74 ± 0.0086 | 0.608 ± 0.021 | 0.7459 ± 0.0044 | 0.603 ± 0.037 | 0.596 ± 0.017 | 0.695 ± 0.019 |
| YWEVYAGLSLWV | 0.63 ± 0.0048 | – | – | – | – | – | – | – |
| YWGGWCGGWEIG | 0.73 ± 0.034 | – | – | – | – | – | – | – |
| YYAFITERYRHN | 0.6069 ± 0.0046 | – | – | – | – | – | – | – |
| YYCLRVRTINRR | 0.703 ± 0.011 | – | – | – | – | – | – | – |
| YYLCHIEEFLSS | 0.622 ± 0.072 | – | – | – | – | – | – | – |
| YYLPRPPRPTVL | 0.623 ± 0.11 | – | – | – | – | – | – | – |
| YYSTQTQATYRH | 0.6773 ± 0.0025 | – | – | – | – | – | – | – |

Source: the supplement of paper PMC10724198
